Article PMC7870846, “Incorporation of sensing modalities into de novo designed fluorescence-activating proteins” (Nature Communications, 2021)
Substitutions are numbered along the chain they refer to. Blank lines part the entries; values can stand above or below the molecule they belong to.

Legend:
[1] = Ca2+-responsive mFAP Ca2+ titrations; assay type: binding
Protocol: In measuring Ca^2+ affinity of mFAPs on a Synergy Neo2 hybrid multi-mode reader (Fig. 4d, e, f and Supplementary Figs. 10c, f, i, 11c, f, i, 13c, f, i, 16b), large-scale purified proteins[49] were aliquoted in technical triplicate to a final concentration of 500 nM with 5.00 μM DFHBI in eleven serial dilutions ( 10 dilution factor) of CaCl2 (Sigma Aldrich) starting from either 900 mM or 90.0 mM CaCl2 (diluted using high-salt Tev cleavage buffer) including a twelfth condition without CaCl2. Final volumes were 200 μL in flat bottom, black polystyrene, non-binding surface 96-well microplates (Corning 3650). Fluorescence endpoints were measured using excitation wavelength λex = 484 nm and emission wavelength λem = 508 nm. Background fluorescence endpoints of wells with identical chromophore and CaCl2 concentrations lacking protein (substituted for equivalent volumes of high-salt Tev cleavage buffer) were measured in technical triplicate, averaged per condition, and subtracted from protein measurement averages of the same conditions.
For Ca^2+ titrations of EF4n_mFAP2a and EF4n_mFAP2b (Supplementary Fig. 13c), a small amount of Chelex 100 sodium form (Sigma Aldrich) was added to purified protein (produced by large-scale protein purification and SEC purification[49]) and nutated at 4 °C overnight. EF4n_mFAP2a was aliquoted in technical triplicate to a final concentration of 8.00 μM with 80.0 μM DFHBI and EF4n_mFAP2b was aliquoted in technical triplicate to a final concentration of 6.25 μM with 43.4 μM DFHBI, in eleven serial dilutions ( 10 dilution factor) of CaCl2 starting from 9.00 mM or 4.00 mM CaCl2 (diluted using high-salt Tev cleavage buffer pre-treated with Chelex 100) including a twelfth condition without CaCl2. Final volumes were 25.0 μL in flat bottom, black polystyrene, non-binding surface 96-well half-area microplates (Corning 3686) or 200 μL in flat bottom, black polystyrene, non-binding surface 96-well microplates (Corning 3650). Fluorescence endpoints were measured for EF4n_mFAP2a using excitation wavelength λex = 478 nm and emission wavelength λem = 520 nm, and for EF4n_mFAP2b using excitation wavelength λex = 484 nm and emission wavelength λem = 508 nm. Background fluorescence endpoints of wells with identical chromophore and CaCl2 concentrations lacking protein (substituted for equivalent volumes of high-salt Tev cleavage buffer) were measured in technical triplicate, averaged per condition, and subtracted from protein measurement averages of the same conditions. For non-linear least squares fitting to obtain Kd values, means were fit to a single-binding site isotherm function where Ca^2+-binding sites were modeled independently with a Hill coefficient of 1.

[2] = test system: human induced pluripotent stem cell (hiPSC)-derived cardiomyocytes; assay: Contraction and SR Ca2+ transient imaging of cardiomyocytes; assay type: cell-based; conditions: SR-targeted; image acquisition ~16.7 Hz
Protocol: hiPSC culture and cardiomyocyte differentiation: Undifferentiated IMR90 human induced pluripotent stem cells (hiPSCs) (WiCell) were maintained in mTeSR-1 (StemCell Technologies) on tissue culture plastic coated with Matrigel diluted 1:60 (Corning) at 37 °C and 5% CO2. Cardiomyocytes were differentiated using a monolayer-based directed differentiation protocol. hiPSCs were dissociated into a single cell suspension using Versene (Life Technologies) and plated at a high density (1.5–2.5·10^5 cells cm^−2) in mTeSR containing 10 µM Y-27632 ROCK inhibitor onto Matrigel-coated plates. Twenty-four hours after plating, media was replaced with fresh mTeSR. […]
Contraction and SR Ca^2+ transient imaging: Leica DMI8 microscope controlled by MetaMorph Imaging software was used to image contraction and Ca^2+ transients of the SR in CMs. […] For mapping contraction, three different ROI traces were hand-drawn, and displacement of cells were measured in the fluorescence channel. […] In order to quantify tissue-level Ca^2+ fluxes during cardiac contraction cycling, fluorescence fold-change over the whole field of view was calculated for each frame then temporally matched with contraction data. Fluorescence fold-change in each frame was calculated by Eq. (11) where F is the fluorescence per frame, and F0 is the fluorescence of the frame with the minimum fluorescence (Fig. 5f and Supplementary Fig. 19b). […]

Circular dichroism = assay type: physicochemical; conditions: absence of DFHBI
Protocol: Circular dichroism (CD) measurements were recorded at 25 °C in a 1 mm cuvette on an AVIV model 420 CD spectrometer (Biomedical, Inc.). mFAP2 and mFAP2.1 were purified by large-scale protein purification and SEC purification[49] in phosphate-buffered saline (PBS) (25.0 mM phosphate, 150 mM NaCl, pH 7.40), and far-ultraviolet CD wavelength scans recorded from 195 nm to 260 nm. mFAP2 was measured at 0.441 mg mL^−1 and mFAP2.1 at 0.500 mg mL^−1 in Na2HPO4-citrate buffer with pH adjusted to 7.75, 3.96, or 2.93 using NaOH and HCl. The reported data was background-subtracted using buffer only contols (Supplementary Fig. 1b, c).

[3] = pH-sensitivity of β-barrel variants (fluorescence ratio fold-change pH 3.66-7.36); assay type: biochemical
Protocol: In measuring pH-sensitivity of β-barrel variants (Supplementary Fig. 1f) in technical triplicate, 140 μL of Na2HPO4-citrate (pH 7.36 or 3.66) supplemented with 150 mM NaCl and 1.43 μM DFHBI was combined with 10.0 μL of small-scale purified protein[49] for a final concentration of 1.33 μM DFHBI. Fluorescence endpoints were measured by exciting at λex = 387 nm or λex = 483 nm and measuring fluorescence emission at λem = 501 nm or λem = 504 nm, respectively. Without background subtraction, the fluorescence ratio fold-change from pH 3.66–7.36 was calculated as:2 FluorescenceRatioFold-ChangepH3.66-7.36=FpH3.66λex=387nm,λem=501nm/FpH3.66λex=483nm,λem=504nm/FpH7.36λex=387nm,λem=501nm/FpH7.36λex=483nm,λem=504nm, where FpHλex,λem is the mean of three technical replicates of endpoint fluorescence measurements at the subscripted pH value and superscripted fluorescence excitation (λex) and fluorescence emission (λem) wavelengths.

[4] = Fluorescence intensity of circularly permuted mFAP2a variants; assay type: biochemical; conditions: equimolar concentration
Protocol: To measure the fluorescence intensities of circularly permuted mFAP2a variants (Supplementary Fig. 22b, d), fluorescence endpoints were measured on a Synergy Neo2 hybrid multi-mode reader (BioTek) in flat bottom, black polystyrene, non-binding surface 96-well microplates (Corning 3650) or half-area microplates (Corning 3686). Fluorescence endpoints were measured in technical triplicate by exciting at λex = 488 nm and measuring fluorescence emission at λem = 510 nm (Supplementary Fig. 22b), or exciting at λex = 468 nm and measuring fluorescence emission at λem = 530 nm (Supplementary Fig. 22d). […]

- Ca2+-responsiveness / allostery between DFHBI and Ca2+ binding ([1]; Ca2+ titration with excess DFHBI): negative allostery
- Kd ([1]; excess DFHBI compared to protein, Hill coefficient of 1): 260 µM
B1: EF1n_mFAP2b: negatively allosteric Ca2+-responsive mFAP, one EF-hand motif (protein)
chain: SRAAQLLPGTWQVTMTNEDGQTSQGQWHFQPRSPYTMDIVAQGTISDGRPIVGYGKATVKTPDTLDIDITYPSLGNIKAQGQITMDSPTQFKWDAHVDKDGDGYISAAEAAAQTKILTGTLQRQE
- response time to Ca2+ fluxes [2]: less than 60 ms

B2: mFAP2.1: mFAP2 mutational variant (protein)
chain: SRAAQLLPGTWQVTMTNEDGQTSQGQMHFQPRSPYTMDVVAQGTISDGRTIVGYGKVTVKTPDTLDVDITYPSLGNIKAQGQITMDSPTQFKFDATTKGAGNFTGRLTGTLQRQE
- stability by circular dichroism compared to mFAP2 (Circular dichroism): improved stability at pH 2.93

B3: mFAP2.2: most pH-responsive mutant of SDM library (protein)
chain: B2 chain with T50P
- fluorescence ratio fold-change from pH 3.66–7.36, higher than mFAP2.1 [3]: ~ 1.3 fold

B4: cp35-34_mFAP2a_12: brightest cpmFAP tested, de novo designed α-helical linker (protein)
chain: QEMDIVAQGTISDGRPIVGYGKATVKTPDTLDIDITYPSLGNIKAQGQITMDSPTQFKWDATTKGENDFHGRLTGTLQRTEEAKEATEEARRRGITTQAAQLLPGTWQATFTNEDGQTSQGQWHFQPRDG
- fluorescence intensity relative to mFAP2a [4]: ~ 93%
